Publication PMC9482650, “Quantitative fragmentomics allow affinity mapping of interactomes” (Nature Communications, 2022)

T1: APBA2_1, Q99767
T1 sequence (Q99767 563-664, limits assumed, looked up): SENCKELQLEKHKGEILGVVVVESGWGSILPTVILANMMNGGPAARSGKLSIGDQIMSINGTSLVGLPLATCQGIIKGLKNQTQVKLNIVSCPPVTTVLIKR

T2: MPDZ_10, O75970
T2 sequence (O75970 1624-1722, limits assumed, looked up): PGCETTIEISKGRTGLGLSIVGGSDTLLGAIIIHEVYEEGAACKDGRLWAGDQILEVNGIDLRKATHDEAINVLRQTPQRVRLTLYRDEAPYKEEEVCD

T3: GRIP1_2, Q9Y3R0
T3 sequence (Q9Y3R0 145-248, limits assumed, looked up): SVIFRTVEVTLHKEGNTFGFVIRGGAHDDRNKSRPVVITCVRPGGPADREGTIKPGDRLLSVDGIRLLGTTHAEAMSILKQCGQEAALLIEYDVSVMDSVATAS

T4: PARD3B_1, Q8TEW8
T4 sequence (Q8TEW8 196-299, limits assumed, looked up): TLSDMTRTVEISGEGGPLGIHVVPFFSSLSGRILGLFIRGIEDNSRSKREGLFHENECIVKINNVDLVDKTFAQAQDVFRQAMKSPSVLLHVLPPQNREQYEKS

T5: APBA2_2, Q99767
T5 sequence (Q99767 654-744, limits assumed, looked up): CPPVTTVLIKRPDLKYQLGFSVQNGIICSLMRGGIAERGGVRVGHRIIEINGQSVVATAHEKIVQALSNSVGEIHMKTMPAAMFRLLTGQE

T6: SNTG2, Q9NY99
T6 sequence (Q9NY99 68-166, limits assumed, looked up): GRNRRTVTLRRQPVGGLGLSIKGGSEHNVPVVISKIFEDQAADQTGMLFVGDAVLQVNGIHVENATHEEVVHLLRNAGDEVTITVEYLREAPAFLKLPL

T7: TIAM2, Q8IVF5
T7 sequence (Q8IVF5 885-986, limits assumed, looked up): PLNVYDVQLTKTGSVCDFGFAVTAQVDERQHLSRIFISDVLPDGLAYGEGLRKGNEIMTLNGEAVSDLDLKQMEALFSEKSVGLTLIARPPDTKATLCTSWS

T8: NHERF3_1, Q5T2W1
T8 sequence (Q5T2W1 4-100, limits assumed, looked up): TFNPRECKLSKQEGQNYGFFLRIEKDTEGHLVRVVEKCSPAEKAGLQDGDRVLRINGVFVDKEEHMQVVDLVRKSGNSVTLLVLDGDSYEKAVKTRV

T9: PDZRN3_1, Q9UPQ7
T9 sequence (Q9UPQ7 244-349, limits assumed, looked up): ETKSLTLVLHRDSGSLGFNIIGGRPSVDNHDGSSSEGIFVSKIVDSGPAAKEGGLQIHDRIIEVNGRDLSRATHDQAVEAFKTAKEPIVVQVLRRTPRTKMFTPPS

T10: DFNB31_1, Q9P202
T10 sequence (Q9P202 135-233, limits assumed, looked up): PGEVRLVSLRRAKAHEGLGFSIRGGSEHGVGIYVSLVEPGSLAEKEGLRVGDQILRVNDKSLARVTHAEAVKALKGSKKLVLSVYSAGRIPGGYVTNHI

T11: PTPN13_1, Q12923
T11 sequence (Q12923 1088-1188, limits assumed, looked up): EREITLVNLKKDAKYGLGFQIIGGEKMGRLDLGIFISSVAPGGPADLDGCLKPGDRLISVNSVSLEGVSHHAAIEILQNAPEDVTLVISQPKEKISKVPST


Experiments:
Assay in all cases: holdup assay
Design in all cases: key: below the threshold = too weak to quantify, mostly under pKd 3.1 to 4
Settings in all cases: plain residues with an end cap or a label only (N-terminal biotin on a linker: ado-ado)
GRIP2_6, Q9C0E4 = molecular target: GRIP2_6, Q9C0E4
Sequence of GRIP2_6, Q9C0E4 (Q9C0E4 648-740): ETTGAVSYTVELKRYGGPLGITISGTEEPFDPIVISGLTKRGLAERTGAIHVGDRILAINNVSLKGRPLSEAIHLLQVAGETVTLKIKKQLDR

APBA2_1, Q99767 = molecular target: T1, APBA2_1, Q99767
LNX1_2, Q8TBB1 = molecular target: LNX1_2, Q8TBB1
Sequence of LNX1_2, Q8TBB1 (Q8TBB1 371-470): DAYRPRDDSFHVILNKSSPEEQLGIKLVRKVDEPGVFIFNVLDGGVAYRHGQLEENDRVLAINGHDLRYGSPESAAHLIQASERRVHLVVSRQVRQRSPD

GRIP2_3, Q9C0E4 = molecular target: GRIP2_3, Q9C0E4
Sequence of GRIP2_3, Q9C0E4 (Q9C0E4 238-339): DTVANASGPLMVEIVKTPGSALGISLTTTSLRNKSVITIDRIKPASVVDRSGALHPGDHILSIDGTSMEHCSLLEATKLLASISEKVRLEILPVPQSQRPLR

MAGI1_1, Q96QZ7 = molecular target: MAGI1_1, Q96QZ7
Sequence of MAGI1_1, Q96QZ7 (Q96QZ7 1-106): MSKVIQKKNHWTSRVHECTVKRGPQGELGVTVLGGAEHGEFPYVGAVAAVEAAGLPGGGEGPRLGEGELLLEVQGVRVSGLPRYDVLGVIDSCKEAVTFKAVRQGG

MPDZ_10, O75970 = molecular target: T2, MPDZ_10, O75970
GRIP1_2, Q9Y3R0 = molecular target: T3, GRIP1_2, Q9Y3R0
PARD3B_1, Q8TEW8 = molecular target: T4, PARD3B_1, Q8TEW8
APBA2_2, Q99767 = molecular target: T5, APBA2_2, Q99767
HTRA2, O43464 = molecular target: HTRA2, O43464
Sequence of HTRA2, O43464 (O43464 355-458): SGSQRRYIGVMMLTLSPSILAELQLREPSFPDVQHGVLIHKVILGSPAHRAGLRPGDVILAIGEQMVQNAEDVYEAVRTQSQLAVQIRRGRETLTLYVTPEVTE

SNTG2, Q9NY99 = molecular target: T6, SNTG2, Q9NY99
FRMPD2_3, Q68DX3 = molecular target: FRMPD2_3, Q68DX3
Sequence of FRMPD2_3, Q68DX3 (Q68DX3 1073-1166): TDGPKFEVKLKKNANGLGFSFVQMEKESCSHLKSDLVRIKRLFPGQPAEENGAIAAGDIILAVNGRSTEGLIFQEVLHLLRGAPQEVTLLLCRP

TIAM2, Q8IVF5 = molecular target: T7, TIAM2, Q8IVF5
Inadl_2, Q8NI35 = molecular target: Inadl_2, Q8NI35
Sequence of Inadl_2, Q8NI35 (Q8NI35 238-335): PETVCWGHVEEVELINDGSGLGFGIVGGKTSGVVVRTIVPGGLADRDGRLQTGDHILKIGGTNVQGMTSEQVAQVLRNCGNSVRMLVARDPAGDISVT

LNX1_1, Q8TBB1 = molecular target: LNX1_1, Q8TBB1
Sequence of LNX1_1, Q8TBB1 (Q8TBB1 261-371): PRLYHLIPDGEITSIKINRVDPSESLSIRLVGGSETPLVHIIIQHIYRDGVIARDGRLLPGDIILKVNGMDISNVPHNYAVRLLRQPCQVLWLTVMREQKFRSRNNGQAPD

NHERF3_1, Q5T2W1 = molecular target: T8, NHERF3_1, Q5T2W1
LAP2, Q96RT1 = molecular target: LAP2, Q96RT1
Sequence of LAP2, Q96RT1 (Q96RT1 other isoform, or with tags, fused parts or gaps): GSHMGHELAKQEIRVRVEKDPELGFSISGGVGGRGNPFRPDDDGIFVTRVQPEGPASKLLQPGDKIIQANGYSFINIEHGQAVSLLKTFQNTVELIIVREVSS

FRMPD3, Q5JV73 = molecular target: FRMPD3, Q5JV73
Sequence of FRMPD3, Q5JV73 (Q5JV73 12-100): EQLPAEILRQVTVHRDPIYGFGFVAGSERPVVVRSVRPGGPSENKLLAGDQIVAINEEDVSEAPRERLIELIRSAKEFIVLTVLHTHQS

PARD3_3, Q8TEW0 = molecular target: PARD3_3, Q8TEW0
Sequence of PARD3_3, Q8TEW0 (Q8TEW0 582-685): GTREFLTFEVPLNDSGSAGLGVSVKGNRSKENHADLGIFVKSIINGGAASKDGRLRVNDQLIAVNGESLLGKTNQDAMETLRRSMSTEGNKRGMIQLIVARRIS

GORASP1, Q9BQQ3 = molecular target: GORASP1, Q9BQQ3
Sequence of GORASP1, Q9BQQ3 (Q9BQQ3 1-208): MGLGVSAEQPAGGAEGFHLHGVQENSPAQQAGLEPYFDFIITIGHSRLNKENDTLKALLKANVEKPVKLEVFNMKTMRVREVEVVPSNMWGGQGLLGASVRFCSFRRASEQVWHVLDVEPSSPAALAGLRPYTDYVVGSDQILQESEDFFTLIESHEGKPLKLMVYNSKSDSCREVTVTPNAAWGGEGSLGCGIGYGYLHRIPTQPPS

GRIP2_4, Q9C0E4 = molecular target: GRIP2_4, Q9C0E4
Sequence of GRIP2_4, Q9C0E4 (Q9C0E4 446-548): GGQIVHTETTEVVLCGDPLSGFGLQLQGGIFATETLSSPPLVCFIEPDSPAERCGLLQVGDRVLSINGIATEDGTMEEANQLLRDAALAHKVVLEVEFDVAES

NHERF2_2, Q15599 = molecular target: NHERF2_2, Q15599
Sequence of NHERF2_2, Q15599 (Q15599 142-238): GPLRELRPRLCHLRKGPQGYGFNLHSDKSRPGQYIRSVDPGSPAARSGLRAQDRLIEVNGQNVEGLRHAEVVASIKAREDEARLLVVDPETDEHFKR

DLG4_1, P78352 = molecular target: DLG4_1, P78352
Sequence of DLG4_1, P78352 (P78352 62-152): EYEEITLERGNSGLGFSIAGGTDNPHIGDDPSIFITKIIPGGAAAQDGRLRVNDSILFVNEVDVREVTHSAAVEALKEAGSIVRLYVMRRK

PDZRN3_1, Q9UPQ7 = molecular target: T9, PDZRN3_1, Q9UPQ7
DFNB31_1, Q9P202 = molecular target: T10, DFNB31_1, Q9P202
GRIP2_5, Q9C0E4 = molecular target: GRIP2_5, Q9C0E4
Sequence of GRIP2_5, Q9C0E4 (Q9C0E4 544-642): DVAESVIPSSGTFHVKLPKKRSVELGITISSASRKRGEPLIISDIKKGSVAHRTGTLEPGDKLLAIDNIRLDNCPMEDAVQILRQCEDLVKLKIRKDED

PTPN13_1, Q12923 = molecular target: T11, PTPN13_1, Q12923

| Binder | pKd (GRIP2_6, Q9C0E4) | pKd (APBA2_1, Q99767) | pKd (LNX1_2, Q8TBB1) | pKd (GRIP2_3, Q9C0E4) | pKd (MAGI1_1, Q96QZ7) | pKd (MPDZ_10, O75970) | pKd (GRIP1_2, Q9Y3R0) | pKd (PARD3B_1, Q8TEW8) | pKd (APBA2_2, Q99767) | pKd (HTRA2, O43464) | pKd (SNTG2, Q9NY99) | pKd (FRMPD2_3, Q68DX3) | pKd (TIAM2, Q8IVF5) | pKd (Inadl_2, Q8NI35) | pKd (LNX1_1, Q8TBB1) | pKd (NHERF3_1, Q5T2W1) | pKd (LAP2, Q96RT1) | pKd (FRMPD3, Q5JV73) | pKd (PARD3_3, Q8TEW0) | pKd (GORASP1, Q9BQQ3) | also measured |
| --- | --- | --- | --- | --- | --- | --- | --- | --- | --- | --- | --- | --- | --- | --- | --- | --- | --- | --- | --- | --- | --- |
| KKTPVSRSHL [SLC22A3, O75751] | below the threshold | below the threshold | below the threshold | below the threshold | below the threshold | below the threshold | below the threshold | below the threshold | below the threshold | below the threshold | 3.48 | below the threshold | below the threshold | below the threshold | below the threshold | 4.39 | below the threshold | below the threshold | below the threshold | below the threshold | pKd (GRIP2_4, Q9C0E4): below the threshold; pKd (NHERF2_2, Q15599): 3.92; pKd (DLG4_1, P78352): 3.55; pKd (PDZRN3_1, Q9UPQ7): below the threshold; pKd (DFNB31_1, Q9P202): below the threshold; pKd (GRIP2_5, Q9C0E4): below the threshold; pKd (PTPN13_1, Q12923): below the threshold |
| LPPPESESKV [KCNJ9, Q92806] | below the threshold | below the threshold | below the threshold | below the threshold | below the threshold | below the threshold | below the threshold | below the threshold | below the threshold | below the threshold | 3.74 | below the threshold | 4.05 | below the threshold | below the threshold | 4.15 | 3.85 | below the threshold | below the threshold | below the threshold | pKd (GRIP2_4, Q9C0E4): below the threshold; pKd (NHERF2_2, Q15599): below the threshold; pKd (DLG4_1, P78352): below the threshold; pKd (PDZRN3_1, Q9UPQ7): below the threshold; pKd (DFNB31_1, Q9P202): 4.01; pKd (GRIP2_5, Q9C0E4): below the threshold; pKd (PTPN13_1, Q12923): below the threshold |
| NNMAFETTHF [SLC5A12, Q1EHB4] | below the threshold | below the threshold | below the threshold | below the threshold | below the threshold | below the threshold | below the threshold | 4.49 | below the threshold | below the threshold | below the threshold | below the threshold | below the threshold | below the threshold | below the threshold | 5.03 | below the threshold | 3.5 | below the threshold | below the threshold | pKd (GRIP2_4, Q9C0E4): below the threshold; pKd (NHERF2_2, Q15599): 4.7; pKd (DLG4_1, P78352): below the threshold; pKd (PDZRN3_1, Q9UPQ7): below the threshold; pKd (DFNB31_1, Q9P202): 4.01; pKd (GRIP2_5, Q9C0E4): below the threshold; pKd (PTPN13_1, Q12923): below the threshold |
| SSSVNVSSNL [CXCR1, P25024] | below the threshold | below the threshold | below the threshold | below the threshold | below the threshold | below the threshold | below the threshold | 3.72 | below the threshold | below the threshold | below the threshold | below the threshold | below the threshold | below the threshold | 3.59 | 4.43 | below the threshold | below the threshold | below the threshold | below the threshold | pKd (GRIP2_4, Q9C0E4): below the threshold; pKd (NHERF2_2, Q15599): 4.44; pKd (DLG4_1, P78352): below the threshold; pKd (PDZRN3_1, Q9UPQ7): below the threshold; pKd (DFNB31_1, Q9P202): 3.56; pKd (GRIP2_5, Q9C0E4): below the threshold; pKd (PTPN13_1, Q12923): below the threshold |
| LLQEEWETVM [PTH1R, Q03431] | below the threshold | below the threshold | below the threshold | below the threshold | below the threshold | below the threshold | 3.63 | 4.43 | below the threshold | below the threshold | 3.95 | below the threshold | below the threshold | below the threshold | 3.72 | 5.63 | below the threshold | below the threshold | 4.33 | 4.31 | pKd (GRIP2_4, Q9C0E4): below the threshold; pKd (NHERF2_2, Q15599): 5.14; pKd (DLG4_1, P78352): below the threshold; pKd (PDZRN3_1, Q9UPQ7): 3.83; pKd (DFNB31_1, Q9P202): 3.84; pKd (GRIP2_5, Q9C0E4): 3.51; pKd (PTPN13_1, Q12923): below the threshold |
